{"source": "patent US7030099B2", "about": "“Tumor specific promoters of the midkine gene that allow for selective expression in P53-inactivated cells” (Research Corporation Technologies, Inc., priority 2000, dated 2006)", "molecules": {"B1": {"name": "p251: c-erbB-2 genomic region −213/+38, SEQ ID NO: 9 (nucleic acid, listed as Homo sapiens)", "DNA": "GGCAACCCAGGCGTCCCGGCGCTAGGAGGGACGACCCAGGCCTGCGCGAAGAGAGGGAGAAAGTGAAGCTGGGAGTTGCCGACTCCCAGACTTCGTTGGAATGCAGTTGGAGGGGGCGAGCTGGGAGCGCGCTTGCTCCCAATCACAGGAGAAGGAGGAGGTGGAGGAGGAGGGCTGCTTGAGGAAGTATAAGAATGAAGTTGTGAAGCTGAGATTCCCCTCCATTGGGACCGGAGAAACCAGGGGAGCCC"}}, "key": {"[1]": {"tested_on": "non-breast cancer cells A875", "assay": "In vitro sensitivity to GCV of promoter-TK gene-introduced cells", "type": "cell-based, human", "details": "GCV seven days, FIG. 8B", "procedure": "(§1) In order to examine the cytotoxic effects using the p251 promoter, a suicide gene HSV-TK was ligated downstream of this promoter region (pro251-TK), this plasmid was expressed in cells, and a prodrug GCV was added to the culture of the gene-introduced cells. The measurement of cytotoxic effects by this system was carried out according to the method described in Moolten, Fla. Cancer Gene Ther., 1:279–287, 1994. Firstly, the cytomegalovirus (CMV) promoter of pcDNA3 (manufactured by Invitrogen) was removed using NruI and HindIII sites, into which the p251 promoter was inserted and then using the EcoRV site, the HSV-TK gene excised from pMK (Brinster, R L et al., Cell, 27:223–231, 1981) with BglI and EcoRI was inserted (pro251-TK). As a control, a pcDN3-derived plasmid (pro251) that contains no HSV-TK gene but has integrated the p251 promoter, and a pcDNA3-derived plasmid (CMV-TK) that has the HSV-TK gene and permits the expression of the HSV-TK gene were also used. Each of the plasmids ([…], pro251-TK, CMV-TK) was introduced using lipofectin into the breast cancer cells MCF7 or non-breast cancer cells A875. In order to utilize the expression of the Neo gene contained in pcDNA3 as a drug resistant marker, the transfected cells were cultured with 400 μg/ml of G418 (manufactured by Life Technologies) for ten days to establish the cells that express a respective gene. […]"}, "breast cancer cells MCF7": {"tested_on": "breast cancer cells MCF7", "assay": "In vitro sensitivity to GCV of promoter-TK gene-introduced cells", "type": "cell-based, human", "details": "GCV seven days, FIG. 8A", "procedure": "as §1"}, "[2]": {"tested_on": "human breast cancer cells OCUBM, MCF7, BT549", "assay": "Luciferase assay of c-erbB-2 promoter activity, breast cancer cells", "type": "cell-based", "details": "FIG. 7A", "procedure": "With the transcription initiation site of the c-erbB-2 gene as +1, DNA that corresponded to a genomic region (p533) from −435 to +38 and that had the sequence set forth in SEQ ID NO: 7 was amplified by the PCR method, and then the DNA fragment was integrated into the pGEM-TEasy (manufactured by Promega), and the sequences of the PCR product was determined. Thus, after inserting this PCR product into the SmaI site of pGL2-Basic (manufactured by Promega), it was cleaved with BlnI/SmaI, PstI/SmaI, and BssHII/SmaI using the restriction enzyme sites present on the c-erbB-2 genomic gene to construct plasmids in which the genomic regions of c-erbB-2, p344 (−306/+38) (DNA having the base sequence set forth in SEQ ID NO: 8), p251 (−213/+38) (DNA having the base sequence set forth in SEQ ID NO: 9) and p124 (−86/+38) (DNA having the base sequence set forth in SEQ ID NO: 10) are localized upstream of the Firefly luciferase gene, respectively. Using the plasmid pGL2-Control (manufactured by Promega) having the promoter of SV40 virus and the plasmid pGL2-Basic (manufactured by Promega) containing no promoters, gene introduction was performed in human breast cancer cells OCUBM, MCF7, BT549, normal human fibroblasts HEF, MRC-5, human malignant melanoma A875, and human lung cancer cells QG-56, all of which were cultured in DMEM (Sigma) supplemented with 10% bovine fetal serum. Firstly, after 10 μg each of these plasmids and lipofectin (Life Technologies) were mixed, it was allowed to stand at room temperature for 30 minutes to form a complex of DNA and lipid. […] After 48 hours-culture, the cells were disrupted using the Dual-Luciferase Reporter Assay System (manufactured by Promega), and the Firefly luciferase activity therein was determined using the reagents in the same kit. In order to normalize the efficiency of gene introduction, 1 μg of pRL-TK plasmid (manufactured by Promega) was included in each gene-introduced group, and the Renilla luciferase activity by the TK promoter was determined, based on which the Firefly luciferase activity was corrected."}, "[3]": {"tested_on": "human malignant melanoma A875, human lung cancer cells QG-56", "assay": "Luciferase assay of c-erbB-2 promoter activity, non-breast tumor cells", "type": "cell-based", "details": "human malignant melanoma cells and human lung cancer cells; FIG. 7C", "procedure": "(§2) With the transcription initiation site of the c-erbB-2 gene as +1, DNA that corresponded to a genomic region (p533) from −435 to +38 and that had the sequence set forth in SEQ ID NO: 7 was amplified by the PCR method, and then the DNA fragment was integrated into the pGEM-TEasy (manufactured by Promega), and the sequences of the PCR product was determined. Thus, after inserting this PCR product into the SmaI site of pGL2-Basic (manufactured by Promega), it was cleaved with BlnI/SmaI, PstI/SmaI, and BssHII/SmaI using the restriction enzyme sites present on the c-erbB-2 genomic gene to construct plasmids in which the genomic regions of c-erbB-2, p344 (−306/+38) (DNA having the base sequence set forth in SEQ ID NO: 8), p251 (−213/+38) (DNA having the base sequence set forth in SEQ ID NO: 9) and p124 (−86/+38) (DNA having the base sequence set forth in SEQ ID NO: 10) are localized upstream of the Firefly luciferase gene, respectively. Using the plasmid pGL2-Control (manufactured by Promega) having the promoter of SV40 virus and the plasmid pGL2-Basic (manufactured by Promega) containing no promoters, gene introduction was performed in human breast cancer cells OCUBM, MCF7, BT549, normal human fibroblasts HEF, MRC-5, human malignant melanoma A875, and human lung cancer cells QG-56, all of which were cultured in DMEM (Sigma) supplemented with 10% bovine fetal serum. Firstly, after 10 μg each of these plasmids and lipofectin (Life Technologies) were mixed, it was allowed to stand at room temperature for 30 minutes to form a complex of DNA and lipid. Then the complex, after removing the bovine fetal serum therefrom, was contacted with the cells. Eight hours later culture medium supplemented with bovine fetal serum was added. After 48 hours-culture, the cells were disrupted using the Dual-Luciferase Reporter Assay System (manufactured by Promega), and the Firefly luciferase activity therein was determined using the reagents in the same kit. In order to normalize the efficiency of gene introduction, 1 μg of pRL-TK plasmid (manufactured by Promega) was included in each gene-introduced group, and the Renilla luciferase activity by the TK promoter was determined, based on which the Firefly luciferase activity was corrected."}, "[4]": {"tested_on": "normal human fibroblasts HEF, MRC-5", "assay": "Luciferase assay of c-erbB-2 promoter activity, normal fibroblasts", "type": "cell-based", "details": "FIG. 7B", "procedure": "as §2"}}}
{"molecule": "B1", "values": [{"measurement": "sensitivity to GCV of cells expressing HSV-TK under the promoter", "setting": "[1]", "value": "very weak compared with of the parent strain"}, {"measurement": "sensitivity to GCV of cells expressing HSV-TK under the promoter", "setting": "breast cancer cells MCF7", "value": "greater sensitivity to GCV than the parent strain"}, {"measurement": "promoter activity compared with promoter of SV40 virus", "setting": "[2]", "value": "more potent than the promoter of SV40 virus"}, {"measurement": "transcription activity compared with other c-erbB-2 promoter fragments", "setting": "[2]", "value": "higher transcription activity than the p533 promoter"}, {"measurement": "transcription activity compared with SV40 promoter", "setting": "[3]", "value": "lower than the SV40 promoter"}, {"measurement": "transcription activity compared with p533 promoter", "setting": "[3]", "value": "about the same as that of p533 promoter"}, {"measurement": "promoter activity compared with SV40 promoter", "setting": "[4]", "value": "lower than the SV40 promoter"}, {"measurement": "transcription activity compared with other c-erbB-2 promoter fragments", "setting": "[4]", "value": "low compared with the p344 promoter and with the p533 promoter"}]}
